Experimental data from US20240218069A1 (LYVGEN BIOPHARMA, published 2024).
Residue numbers refer to the chain shown, from its start. Values belong to the binder of their own block, whether it stands above or below them.

Legend:
human CD40 [1] = biological target: T1, human CD40 (human, UniProt P25942 21-277); test: FACS on CHO cells expressing human CD40 (FIG. 2D)
T1 construct: whole, on cells; also called huCD40

human B7H3 = biological target: T2, human B7H3 (human, UniProt Q5ZPR3 29-534); test: FACS on CHO cells over-expressing human B7H3
T2 construct: whole, on cells; CHO cells over-expressing human B7H3 (CHO-B7H3); also called CD276; cellular B7H3
T2 sequence (looked up): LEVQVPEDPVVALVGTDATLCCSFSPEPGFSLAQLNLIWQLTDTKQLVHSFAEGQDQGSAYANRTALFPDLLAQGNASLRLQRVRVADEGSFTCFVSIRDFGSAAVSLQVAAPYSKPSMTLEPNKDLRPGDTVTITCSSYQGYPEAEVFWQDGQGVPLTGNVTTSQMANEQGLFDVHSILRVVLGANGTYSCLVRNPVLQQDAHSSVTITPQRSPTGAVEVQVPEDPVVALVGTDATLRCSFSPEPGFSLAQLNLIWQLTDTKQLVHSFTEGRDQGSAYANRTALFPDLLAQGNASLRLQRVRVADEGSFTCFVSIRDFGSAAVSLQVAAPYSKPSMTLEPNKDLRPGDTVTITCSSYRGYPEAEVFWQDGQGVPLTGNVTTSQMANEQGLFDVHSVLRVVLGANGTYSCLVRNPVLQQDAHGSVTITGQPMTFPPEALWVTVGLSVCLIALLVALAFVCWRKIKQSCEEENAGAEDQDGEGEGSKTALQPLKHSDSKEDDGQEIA
Method: FACS analysis was performed to evaluate the binding properties of exemplary anti-B7H3 humanized antibodies. Briefly, CHO cells over-expressing human B7H3 were harvested using trypsin-EDTA partial digestion followed by centrifugation at 1000 g for 3 minutes. The cells were re-suspended in cold PBS-BSA (2%) at 2×10⁶/mL and aliquoted to 100 μL/tube. The anti-B7H3 humanized antibodies were serially diluted in PBS-BSA and 50 μL of each was added to the CHO-B7H3 cells. The cell were mixed and incubated at 4° C. in the dark for 2 hours, then washed with PBS-BSA twice. Secondary antibody conjugates (goat F(ab′)₂ anti-human IgG-Fc (PE), pre-adsorbed, Abcam #ab98596) at 1/500 dilution, 100 μL/well, was used to resuspend the cells. The cells were incubated 4° C. in dark for another 1 hour and washed twice with PBS-BSA, followed by fixation in 2% PFA/PBS, and then subjected to FACS analysis.
Binding of the antibodies to human B7H3 expressing CHO cells were evaluated and the mean fluorescence intensity is plotted in histograms as shown in FIGS. 1A-1C. […] However, Ly1426 (CDR grafted, without back mutation) didn't bind to cellular B7H3.

human CD40 [2] = biological target: T1, human CD40; test: FACS on CHO cells expressing human CD40 (FIG. 2C)
human CD40 [3] = biological target: T1, human CD40; test: FACS on CHO cells expressing human CD40 (FIGS. 2C and 2D)

T1 sequence (P25942 21-277): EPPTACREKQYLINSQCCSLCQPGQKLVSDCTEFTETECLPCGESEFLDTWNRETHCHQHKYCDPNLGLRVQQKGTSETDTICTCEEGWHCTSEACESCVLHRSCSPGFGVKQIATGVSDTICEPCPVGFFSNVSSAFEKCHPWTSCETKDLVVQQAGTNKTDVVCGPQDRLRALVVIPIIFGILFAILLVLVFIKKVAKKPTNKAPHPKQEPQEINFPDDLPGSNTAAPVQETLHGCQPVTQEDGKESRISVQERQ

binding result (human CD40 [1]): binds
B1: Ly1579 (bispecific antibody)
heavy: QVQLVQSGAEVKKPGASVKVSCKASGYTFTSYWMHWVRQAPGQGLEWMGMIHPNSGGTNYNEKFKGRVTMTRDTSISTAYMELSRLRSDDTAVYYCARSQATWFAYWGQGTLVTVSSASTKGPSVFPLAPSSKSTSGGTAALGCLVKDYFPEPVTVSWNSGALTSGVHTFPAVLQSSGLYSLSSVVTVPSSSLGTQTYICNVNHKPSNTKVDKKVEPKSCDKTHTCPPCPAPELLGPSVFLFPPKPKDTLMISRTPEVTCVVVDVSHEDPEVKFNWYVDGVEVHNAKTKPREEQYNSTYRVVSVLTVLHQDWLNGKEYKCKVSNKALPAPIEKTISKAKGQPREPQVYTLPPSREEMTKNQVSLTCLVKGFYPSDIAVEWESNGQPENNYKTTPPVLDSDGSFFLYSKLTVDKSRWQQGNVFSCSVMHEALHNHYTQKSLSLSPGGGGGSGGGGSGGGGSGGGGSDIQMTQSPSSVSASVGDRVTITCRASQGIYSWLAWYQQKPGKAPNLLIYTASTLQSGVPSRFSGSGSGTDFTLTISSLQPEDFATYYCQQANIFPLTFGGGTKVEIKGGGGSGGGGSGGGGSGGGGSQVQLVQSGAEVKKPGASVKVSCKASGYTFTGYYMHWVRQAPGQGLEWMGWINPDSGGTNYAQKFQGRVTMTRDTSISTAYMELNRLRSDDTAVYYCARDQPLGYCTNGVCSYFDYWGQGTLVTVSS
light: EIVLTQSPATLSLSPGERATLSCRASSSVSSSYLHWYQQKPGQAPRLLIYSTSNLASGIPARFSGSGSGTDFTLTISSLEPEDFAVYYCQHYSGYPLTFGGGTKVEIKRTVAAPSVFIFPPSDEQLKSGTASVVCLLNNFYPREAKVQWKVDNALQSGNSQESVTEQDSKDSTYSLSSTLTLSKADYEKHKVYACEVTHQGLSSPVTKSFNRGEC
notes: Two-chain format; also called anti-B7H3/CD40 bi-specific antibody Ly1579

binding result (human CD40 [2]): binds
B3: Ly1663 (bispecific antibody)
heavy: QVQLVQSGAEVKKPGASVKVSCKASGYTFTSYVMHWVRQKPGQGLEWIGYINPYNEGTESTDKFKGRATMTSDKSTSTVYMELSSLRSEDTAVYYCASIYYGYEGTYFGVWGQGTLVTVSSASTKGPSVFPLAPSSKSTSGGTAALGCLVKDYFPEPVTVSWNSGALTSGVHTFPAVLQSSGLYSLSSVVTVPSSSLGTQTYICNVNHKPSNTKVDKKVEPKSCDKTHTCPPCPAPELLGPSVFLFPPKPKDTLMISRTPEVTCVVVDVSHEDPEVKFNWYVDGVEVHNAKTKPREEQYNSTYRVVSVLTVLHQDWLNGKEYKCKVSNKALPAPIEKTISKAKGQPREPQVYTLPPSREEMTKNQVSLTCLVKGFYPSDIAVEWESNGQPENNYKTTPPVLDSDGSFFLYSKLTVDKSRWQQGNVFSCSVMHEALHNHYTQKSLSLSPGK
light: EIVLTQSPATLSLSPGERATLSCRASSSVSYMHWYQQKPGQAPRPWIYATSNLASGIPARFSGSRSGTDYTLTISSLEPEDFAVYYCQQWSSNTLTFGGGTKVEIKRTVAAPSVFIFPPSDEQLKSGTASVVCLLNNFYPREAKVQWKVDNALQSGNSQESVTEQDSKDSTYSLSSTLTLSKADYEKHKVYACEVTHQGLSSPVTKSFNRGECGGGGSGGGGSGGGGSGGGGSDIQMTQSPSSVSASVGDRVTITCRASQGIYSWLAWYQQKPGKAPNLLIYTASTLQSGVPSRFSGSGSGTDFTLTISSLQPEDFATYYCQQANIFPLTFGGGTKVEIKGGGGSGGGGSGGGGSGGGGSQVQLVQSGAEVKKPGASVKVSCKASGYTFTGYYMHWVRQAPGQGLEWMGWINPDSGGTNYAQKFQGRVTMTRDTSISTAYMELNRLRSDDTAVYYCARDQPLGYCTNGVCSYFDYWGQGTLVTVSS
notes: Two-chain format; also called anti-B7H3/CD40 bi-specific antibody Ly1663

binding result (human CD40 [2]): binds
B7: Ly1661 (bispecific antibody, human IgG1, kappa)
heavy: B3 heavy with L354D, L371E
chain 1: not shown
light: EIVLTQSPATLSLSPGERATLSCRASSSVSYMHWYQQKPGQAPRPWIYATSNLASGIPARFSGSRSGTDYTLTISSLEPEDFAVYYCQQWSSNTLTFGGGTKVEIKRTVAAPSVFIFPPSDEQLKSGTASVVCLLNNFYPREAKVQWKVDNALQSGNSQESVTEQDSKDSTYSLSSTLTLSKADYEKHKVYACEVTHQGLSSPVTKSFNRGEC
chain 2: DIQMTQSPSSVSASVGDRVTITCRASQGIYSWLAWYQQKPGKAPNLLIYTASTLQSGVPSRFSGSGSGTDFTLTISSLQPEDFATYYCQQANIFPLTFGGGTKVEIKSSASTKGPSVFPLAPSSKSTSGGTAALGCLVKDYFPEPVTVSWNSGALTSGVHTFPAVLQSSGLYSLSSVVTVPSSSLGTQTYICNVNHKPSNTKVDKKVEPKSC
notes: Four-chain heterodimer format; also called anti-B7H3/CD40 bi-specific antibody Ly1661

Further lines, the binder ahead of its results:

B2: Ly1426 (antibody, human IgG1, kappa, V domains shown)
VH: QVQLVQSGAEVKKPGASVKVSCKASGYTFTSYVMHWVRQAPGQGLEWMGYINPYNDGTECTDKFKGRVTMTRDTSTSTVYMELSSLRSEDTAVYYCARIYYGYDGTYFGVWGQGTLVTVSS
VL: EIVLTQSPATLSLSPGERATLSCRASSSVSYMHWYQQKPGQAPRLLIYATSNLASGIPARFSGSGSGTDFTLTISSLEPEDFAVYYCQQWSSNTLTFGGGTKVEIKR
notes: also called Ly383_VH-1/Ly383_VL-1; grafted humanized antibody of Ly383
binding result (human B7H3): no binding

B4: Ly1581 (bispecific antibody)
heavy: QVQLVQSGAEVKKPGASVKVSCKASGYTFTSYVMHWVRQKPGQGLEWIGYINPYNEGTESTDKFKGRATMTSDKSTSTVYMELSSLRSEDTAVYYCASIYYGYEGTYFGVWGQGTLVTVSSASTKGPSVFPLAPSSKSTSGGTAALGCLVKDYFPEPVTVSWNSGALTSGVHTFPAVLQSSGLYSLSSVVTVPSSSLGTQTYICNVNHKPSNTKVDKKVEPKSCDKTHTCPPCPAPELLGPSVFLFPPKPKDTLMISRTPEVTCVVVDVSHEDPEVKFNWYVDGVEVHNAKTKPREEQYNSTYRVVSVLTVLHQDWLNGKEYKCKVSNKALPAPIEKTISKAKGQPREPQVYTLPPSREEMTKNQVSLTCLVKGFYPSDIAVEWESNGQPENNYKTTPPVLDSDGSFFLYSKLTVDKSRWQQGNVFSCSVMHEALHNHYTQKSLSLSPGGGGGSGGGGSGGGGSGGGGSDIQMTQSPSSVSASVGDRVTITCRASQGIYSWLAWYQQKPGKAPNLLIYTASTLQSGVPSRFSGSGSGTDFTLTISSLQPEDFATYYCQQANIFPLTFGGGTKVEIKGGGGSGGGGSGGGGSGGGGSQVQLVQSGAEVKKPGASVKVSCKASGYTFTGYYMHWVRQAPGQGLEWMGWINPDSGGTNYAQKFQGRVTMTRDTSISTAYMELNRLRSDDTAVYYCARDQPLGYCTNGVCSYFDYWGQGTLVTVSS
light: B7 light
notes: also called anti-B7H3/CD40 bi-specific antibody Ly1581
binding result (human CD40 [3]): binds

B5: Ly1660 (bispecific antibody, human IgG1, kappa)
heavy: B3 heavy with S357C, T369W
chain 1: not shown
light: B7 light
chain 2: B7 chain 2
notes: Four-chain heterodimer format; also called anti-B7H3/CD40 bi-specific antibody Ly1660
binding result (human CD40 [2]): binds

B6: Ly1662 (bispecific antibody)
heavy: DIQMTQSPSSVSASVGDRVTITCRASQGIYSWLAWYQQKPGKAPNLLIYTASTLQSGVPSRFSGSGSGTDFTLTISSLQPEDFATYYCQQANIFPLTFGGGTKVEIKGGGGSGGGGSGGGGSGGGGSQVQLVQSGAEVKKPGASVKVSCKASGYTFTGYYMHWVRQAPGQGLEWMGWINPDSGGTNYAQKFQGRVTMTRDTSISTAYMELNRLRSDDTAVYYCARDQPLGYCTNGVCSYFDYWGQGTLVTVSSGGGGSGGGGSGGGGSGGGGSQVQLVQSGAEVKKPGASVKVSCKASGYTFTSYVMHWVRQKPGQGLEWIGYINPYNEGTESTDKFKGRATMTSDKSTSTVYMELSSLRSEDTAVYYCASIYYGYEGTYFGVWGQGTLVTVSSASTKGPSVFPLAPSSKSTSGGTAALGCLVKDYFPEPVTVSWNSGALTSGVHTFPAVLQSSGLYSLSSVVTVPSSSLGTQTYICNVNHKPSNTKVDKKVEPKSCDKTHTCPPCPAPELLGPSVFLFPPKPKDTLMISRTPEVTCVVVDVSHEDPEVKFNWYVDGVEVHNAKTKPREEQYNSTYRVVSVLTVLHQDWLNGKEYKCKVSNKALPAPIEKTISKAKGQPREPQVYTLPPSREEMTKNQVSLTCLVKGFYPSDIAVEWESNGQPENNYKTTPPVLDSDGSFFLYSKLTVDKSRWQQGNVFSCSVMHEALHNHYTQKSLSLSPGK
light: B7 light
notes: Two-chain format; also called anti-B7H3/CD40 bi-specific antibody Ly1662
binding result (human CD40 [2]): binds
